Experimental data taken from patent US20260201008A1, “SECRETIN-DERIVED GLP1R SELECTIVE AGONISTS” (GUBRA A/S, priority 2023, published 2026).
Like-named read-outs stand apart in the source and are kept apart here. Numbered stars: 1 amine (or outer) side, 2 acyl side, 3 side chain; on linkers, the order of the positions; unused ones are H or OH. Square brackets hold non-standard residues; d marks the D form. Side chains are listed from the residue outwards. Ends that are not written are not given here. Peptide text beside a SMILES is read from it. * marks the point of attachment. C20 diacid = O=C(O)CCCCCCCCCCCCCCCCCCC(=O)*; γGlu = O=C(O)[C@H](CCC(=O)[*:2])N[*:1]; AEEA = NCCOCCOCC(=O)O; Aib = CC(C)(N)C(=O)O

How the values were obtained:
GLP1R = GLP1R (Homo sapiens, UniProt P43220); test: hGLP1R potency, cAMP accumulation in CHO-K1 cells stably overexpressing hGLP1R; format: cell-based; design: host or cells: CHO-K1; conditions: for EC50: cAMP accumulation, CHO-K1 cells overexpressing hGLP1R
Method in brief: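 Thawed cells go straight into buffer containing 0.5 mM IBMX and 0.05% casein, get graded compound doses for 30 min at room temperature, and are then assayed for accumulated cAMP by time-resolved FRET. Human GLP-1(7-36) serves as positive control; EC50 is derived by nonlinear regression.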

SCTR = SCTR (Homo sapiens, UniProt P47872); test: hSCTR potency, cAMP accumulation in CHO-K1 cells stably overexpressing hSCTR; format: cell-based; design: alternatively Euroscreen ES-712-AF; FAST-0161L; host or cells: CHO-K1; conditions: cAMP accumulation, CHO-K1 cells overexpressing hSCTR
Method in brief: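 Read-out is TR-FRET cAMP detection, recorded one hour after reagent addition, in CHO-K1 cells stably overexpressing hSCTR. Cells in DPBS containing 0.05% casein and 0.5 mM IBMX are exposed to graded peptide doses for 30 min at room temperature, with human secretin as reference agonist.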

[1] = Turbidity of crude library peptides (absorbance at 600 nm); format: physicochemical; conditions: Physical stability of peptides
Method in brief: (§1)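 Crude peptides at 267 μM in 50 mM sodium acetate pH 4.0 or 50 mM sodium phosphate pH 7.0, pre-incubated 1-2 h at room temperature, then 4 μM final ThT added. Turbidity read first as A600. ThT fluorescence (ex 450/em 480 nm) read every 10 min for 72 h at 40° C, with 5 min shaking before each read; fibril formation = average emission.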

[2] = Fibril formation of crude library peptides (Thioflavin T); format: physicochemical; design: key: average ThT fluorescence emission at 480 nm (ex 450 nm), raw units; conditions: Physical stability of peptides
Method in brief: as §1

[3] = target: human GLP-1 receptor (hGLP1R) (human, UniProt P43220 24-463); test: cell-based or functional assay
[4] = target: human secretin receptor (hSCTR) (human, UniProt P47872 23-440); test: cell-based or functional assay
Chain of human secretin receptor (hSCTR) (P47872 23-440): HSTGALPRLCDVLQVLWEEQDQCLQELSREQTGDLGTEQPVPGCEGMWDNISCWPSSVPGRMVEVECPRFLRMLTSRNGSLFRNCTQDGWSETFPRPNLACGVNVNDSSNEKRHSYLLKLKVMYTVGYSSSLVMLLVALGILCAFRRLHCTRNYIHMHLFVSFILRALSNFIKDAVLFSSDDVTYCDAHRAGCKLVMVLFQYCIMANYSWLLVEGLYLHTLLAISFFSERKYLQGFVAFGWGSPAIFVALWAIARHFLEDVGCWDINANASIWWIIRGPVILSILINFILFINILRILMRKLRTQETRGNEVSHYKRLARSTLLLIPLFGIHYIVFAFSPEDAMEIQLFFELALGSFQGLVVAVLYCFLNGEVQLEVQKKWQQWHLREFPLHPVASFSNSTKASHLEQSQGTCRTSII

Chain of GLP1R (P43220 24-463): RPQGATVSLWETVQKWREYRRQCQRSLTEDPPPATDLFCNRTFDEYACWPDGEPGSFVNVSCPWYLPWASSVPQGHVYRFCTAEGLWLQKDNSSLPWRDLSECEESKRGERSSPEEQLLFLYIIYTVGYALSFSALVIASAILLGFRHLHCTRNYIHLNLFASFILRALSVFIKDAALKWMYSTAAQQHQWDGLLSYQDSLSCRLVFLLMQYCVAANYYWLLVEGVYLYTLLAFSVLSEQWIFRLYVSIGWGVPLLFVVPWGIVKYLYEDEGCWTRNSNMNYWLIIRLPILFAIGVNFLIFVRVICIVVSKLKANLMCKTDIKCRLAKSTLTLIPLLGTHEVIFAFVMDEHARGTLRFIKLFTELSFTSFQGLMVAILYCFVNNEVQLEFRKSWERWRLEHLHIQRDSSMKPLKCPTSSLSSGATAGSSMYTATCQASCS
Chain of SCTR (P47872 23-440): as the sequence (P47872 23-440) above

Molecule	pEC50 hGLPR1 [3]	pEC50 hSCTR [4]	also measured
CC(C)C[C@H](NC(=O)[C@H](Cc1ccccc1)NC(=O)[C@H](CCCNC(=N)N)NC(=O)[C@H](CCC(N)=O)NC(=O)[C@H](CCC(=O)O)NC(=O)[C@H](C)NC(=O)[C@H](C)NC(=O)[C@H](CCC(=O)O)NC(=O)[C@H](CCC(=O)O)NC(=O)[C@H](CCCCNC(=O)COCCOCCNC(=O)COCCOCCNC(=O)CC[C@H](NC(=O)CCCCCCCCCCCCCCCCCCC(=O)O)C(=O)O)NC(=O)[C@H](CC(C)C)NC(=O)[C@H](Cc1ccc(O)cc1)NC(=O)[C@H](CO)NC(=O)[C@@H](NC(=O)[C@H](CC(=O)O)NC(=O)[C@H](CO)NC(=O)[C@@H](NC(=O)[C@H](Cc1ccccc1)NC(=O)[C@@H](NC(=O)CNC(=O)[C@H](CCC(=O)O)NC(=O)C(C)(C)NC(=O)[C@@H](N)Cc1c[nH]cn1)[C@@H](C)O)[C@@H](C)O)C(C)C)C(=O)N[C@@H](CCC(=O)O)C(=O)N[C@@H](Cc1c[nH]cn1)C(=O)N[C@@H](CC(C)C)C(=O)N[C@H](C(N)=O)C(C)C [compound 95] (H-H[Aib]EGTFTSDVSYLK([AEEA-AEEA-γGlu-C20 diacid])EEAAEQRFLEHLV-NH2)	–	–	EC50 (GLP1R; read-out: hGLP1R pEC50 (converted)): 0.02 nM; SCTR EC50/GLP1R EC50 ratio (GLP1R; selectivity for hGLP1R over hSCTR, cAMP accumulation in CHO-K1 cells): 840427; EC50 (SCTR; read-out: hSCTR pEC50 (converted)): 15.8 µM; Turbidity (pH 7) [1]: 0.08; Fibril formation [2]: 10160
CC(C)C[C@H](NC(=O)[C@H](Cc1ccccc1)NC(=O)[C@H](CCCNC(=N)N)NC(=O)[C@H](CCC(N)=O)NC(=O)[C@H](CCC(=O)O)NC(=O)[C@H](C)NC(=O)[C@H](C)NC(=O)[C@H](CCC(=O)O)NC(=O)[C@H](CCC(=O)O)NC(=O)[C@H](CCCCNC(=O)COCCOCCNC(=O)COCCOCCNC(=O)CC[C@H](NC(=O)CCCCCCCCCCCCCCCCCCC(=O)O)C(=O)O)NC(=O)[C@H](CC(C)C)NC(=O)[C@H](Cc1ccccc1)NC(=O)[C@H](CO)NC(=O)[C@@H](NC(=O)[C@H](CC(=O)O)NC(=O)[C@H](CO)NC(=O)[C@@H](NC(=O)[C@H](Cc1ccccc1)NC(=O)[C@@H](NC(=O)CNC(=O)[C@H](CCC(=O)O)NC(=O)C(C)(C)NC(=O)[C@@H](N)Cc1c[nH]cn1)[C@@H](C)O)[C@@H](C)O)C(C)C)C(=O)N[C@@H](CCC(=O)O)C(=O)N[C@@H](Cc1c[nH]cn1)C(=O)N[C@@H](CC(C)C)C(=O)N[C@H](C(N)=O)C(C)C [compound 56] (H-H[Aib]EGTFTSDVSFLK([AEEA-AEEA-γGlu-C20 diacid])EEAAEQRFLEHLV-NH2)	–	–	Selectivity (GLP1R; SCTR EC50/GLP1R EC50 ratio): 179887; EC50 (GLP1R; read-out: pEC50 hGLPR1 (converted)): 0.0398 nM; EC50 (SCTR; read-out: pEC50 hSCTR (converted)): 7.94 µM; Turbidity (pH 7) [1]: 0.10; Fibril formation [2]: 11030
H[Aib]EGTFTSDVSFLK([AEEA-AEEA-γGlu-C20 diacid])EEAAAQRFLEHLV-NH2 [SEQ ID NO: 63]	10.3 -log M	5 -log M	–
H[Aib]EGTFTSDVSFLK([AEEA-AEEA-γGlu-C20 diacid])EEAAEQRFLEHLV-NH2 [SEQ ID NO: 56]	10.4 -log M	5.1 -log M	–
H[Aib]EGTFTSDVSRLK([AEEA-AEEA-γGlu-C20 diacid])E[Aib]AA[Aib]QRFLEHLV-NH2 [SEQ ID NO: 64]	10.2 -log M	6.5 -log M	–
H[Aib]EGTFTSDVSYLK([AEEA-AEEA-γGlu-C20 diacid])ETAAQQRFLEHLV-NH2 [SEQ ID NO: 58]	10.6 -log M	6 -log M	–
H[Aib]EGTFTSDVSRLK([AEEA-AEEA-γGlu-C20 diacid])EEAAAQRFLEHLV-NH2 [SEQ ID NO: 60]	10.5 -log M	6.6 -log M	–
H[Aib]EGTFTSDVSRLK([AEEA-AEEA-γGlu-C20 diacid])E[Aib]AASQRFLEHLV-NH2 [SEQ ID NO: 59]	10.5 -log M	6.9 -log M	–
H[Aib]EGTFTSDVSRLK([AEEA-AEEA-γGlu-C20 diacid])EFAA[Aib]QRFLEHLV-NH2 [SEQ ID NO: 68]	10 -log M	5.9 -log M	–
H[Aib]EGTFTSDVSTLK([AEEA-AEEA-γGlu-C20 diacid])ELAATQRFLEHLV-NH2 [SEQ ID NO: 67]	10.3 -log M	6.4 -log M	–
H[Aib]EGTFTSDVSELK([AEEA-AEEA-γGlu-C20 diacid])E[Aib]AA[Aib]QRFLEHLV-NH2 [SEQ ID NO: 7]	10.2 -log M	6 -log M	–
H[Aib]EGTFTSDVSRLK([AEEA-AEEA-γGlu-C20 diacid])EEAA[Aib]QRFLEHLV-NH2 (also: K14 lipid also given as C18DA[γE][OEG][OEG]-) [SEQ ID NO: 1]	10.4 -log M	6.8 -log M	–
H[Aib]EGTFTSDVSVLK([AEEA-AEEA-γGlu-C20 diacid])ETAAAQRFLEHLV-NH2 [SEQ ID NO: 62]	10 -log M	5.7 -log M	–
H[Aib]EGTFTSDVSYLK([AEEA-AEEA-γGlu-C20 diacid])ETAAEQRFLEHLV-NH2 [SEQ ID NO: 69]	10.8 -log M	4.8 -log M	–
H[Aib]EGTFTSDVSELK([AEEA-AEEA-γGlu-C20 diacid])EEAAEQRFLEHLV-NH2 [SEQ ID NO: 51]	10.5 -log M	5.7 -log M	–
H[Aib]EGTFTSDVSELK([AEEA-AEEA-γGlu-C20 diacid])ETAAAQRFLEHLV-NH2 [SEQ ID NO: 57]	10.6 -log M	5.3 -log M	–
H[Aib]EGTFTSDVSRLK([AEEA-AEEA-γGlu-C20 diacid])EEAATQRFLEHLV-NH2 [SEQ ID NO: 65]	11.5 -log M	7.6 -log M	–
H[Aib]EGTFTSDVSVLK([AEEA-AEEA-γGlu-C20 diacid])EEAATQRFLEHLV-NH2 [SEQ ID NO: 53]	11.3 -log M	7.2 -log M	–
H[Aib]EGTFTSDVSYLK([AEEA-AEEA-γGlu-C20 diacid])EFAASQRFLEHLV-NH2 [SEQ ID NO: 66]	10.4 -log M	5.5 -log M	–
H[Aib]EGTFTSDVSRLK([AEEA-AEEA-γGlu-C20 diacid])E[Aib]AATQRFLEHLV-NH2 [SEQ ID NO: 50]	10.8 -log M	7.3 -log M	–
H[Aib]EGTFTSDVSELK([AEEA-AEEA-γGlu-C20 diacid])EEAATQRFLEHLV-NH2 [SEQ ID NO: 55]	11 -log M	6.8 -log M	–
H[Aib]EGTFTSDVSRLK([AEEA-AEEA-γGlu-C20 diacid])EFAASQRFLEHLV-NH2 [SEQ ID NO: 52]	9.9 -log M	6.4 -log M	–
H[Aib]EGTFTSDVSELK([AEEA-AEEA-γGlu-C20 diacid])ETAATQRFLEHLV-NH2 [SEQ ID NO: 54]	10.9 -log M	6.9 -log M	–
H[Aib]EGTFTSDVSELK([AEEA-AEEA-γGlu-C20 diacid])E[Aib]AAQQRFLEHLV-NH2 [SEQ ID NO: 5]	10.9 -log M	7.1 -log M	–
H[Aib]EGTFTSDVSTLK([AEEA-AEEA-γGlu-C20 diacid])EEAASQRFLEHLV-NH2 [SEQ ID NO: 6]	10.5 -log M	6.5 -log M	–
H[Aib]EGTFTSDVSYLK([AEEA-AEEA-γGlu-C20 diacid])EEAAAQRFLEHLV-NH2 [SEQ ID NO: 61]	10.9 -log M	6.1 -log M	–
